Data: US20070286861A1, “Immunoglobulins” (published 2007)
Numbering of substitutions follows the chain as printed. Read-outs that look alike come from different tables or passages of the source. Blank lines part the entries; values can stand above or below the binder they belong to.

Columns and labels:
[1] = biological target: T1, human Oncostatin M (hOSM) (human)
T1 chain: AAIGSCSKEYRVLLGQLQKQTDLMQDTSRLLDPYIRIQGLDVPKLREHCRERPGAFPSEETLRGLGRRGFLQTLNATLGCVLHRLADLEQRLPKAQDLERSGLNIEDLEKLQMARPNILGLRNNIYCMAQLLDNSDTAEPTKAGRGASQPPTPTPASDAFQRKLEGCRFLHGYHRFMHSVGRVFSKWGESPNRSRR

[2] = biological target: T2, glycosylated human OSM produced in CHO cells (human)
T2 sequence (chain, glycosylated (CHO cell glycosylated)): T1 chain

[3] = biological target: T3, glycosylated human OSM produced in CHO cells (human, glycosylated (CHO cell glycosylated)); assay: gp130 inhibition ELISA (Table 4; OSM taken as CHO produced hOSM of FIG. 17)
T3 chain: T1 chain

[4] = biological target: T1, human Oncostatin M (hOSM); assay: gp130 inhibition ELISA (antibody pre-incubated with OSM; OSM bound to plate-coated gp130-Fc detected)
[5] = biological target: T1, human Oncostatin M (hOSM); assay: gp130 inhibition ELISA
[6] = biological target: T4, cynomolgus monkey OSM (cOSM) (cynomolgus monkey); assay: gp130 inhibition ELISA
T4 chain: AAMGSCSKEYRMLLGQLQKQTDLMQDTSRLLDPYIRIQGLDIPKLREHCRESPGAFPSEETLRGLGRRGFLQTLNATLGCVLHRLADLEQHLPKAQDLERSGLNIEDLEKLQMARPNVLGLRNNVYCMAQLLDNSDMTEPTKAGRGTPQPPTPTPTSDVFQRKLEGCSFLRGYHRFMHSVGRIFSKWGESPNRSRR

[7] = biological target: T1, human Oncostatin M (hOSM); assay: gp130 inhibition ELISA, CHO supernatant; legend: NA: inhibition is less than 50%
[8] = biological target: T4, cynomolgus monkey OSM (cOSM); assay: as above
[9] = biological target: T1, human Oncostatin M (hOSM); assay: gp130 inhibition ELISA, CHO supernatant
[10] = biological target: T4, cynomolgus monkey OSM (cOSM); assay: gp130 inhibition ELISA, CHO supernatant
[11] = biological target: T1, human Oncostatin M (hOSM)
[12] = biological target: T4, cynomolgus monkey OSM (cOSM)
[13] = biological target: T1, human Oncostatin M (hOSM); assay: gp130 ELISA
[14] = biological target: T4, cynomolgus monkey OSM (cOSM); assay: gp130 ELISA

B1: 15E10 murine antibody (antibody, V domains shown)
VH: QVQLKQSGPGLVQPSQSLSITCTVSGFSLTNYGVHWVRQSPGKGLEWLGVIWRGGSTDYNAAFMSRLSITKDNSRSQVFFKMNSLQADDTAIYYCAKSPNSNFYWYFDVWGTGTTVTVSS
VL: QIVLTQSPTIMSASPGEKVTMTCSGSSSVSYMYWYQEKPGSSPRLLIEDTSNLASGVPARFSGSGSGTSYSLTISRMEAEDAATYYCQQWSSYPPTFGSGTKLEIK
IL-6 release from KB cells (KB cell assay), IC50 [1]: 0.195 µg/mL
IL-6 release from KB cells (KB cell assay), IC50 [2]: 0.053 µg/mL
IC50 [3]: 0.009 µg/mL
IC50 [4]: 0.059 µg/mL

B2: 15E10 chimaeric antibody (antibody, V domains shown)
VH: B1 VH
VL: B1 VL
IL-6 release from KB cells (KB cell assay), IC50 [1]: 0.11 µg/mL
IL-6 release from KB cells (KB cell assay), IC50 [2]: 0.079 µg/mL
IC50 [5]: 0.07 µg/mL
IC50 [6]: 0.06 µg/mL
IC50 [3]: 0.019 µg/mL
IC50 [4]: 0.036 µg/mL

B3: humanised 15E10 antibody B1L1 (antibody, V domains shown)
VH: QVQLVESGGGVVQPGRSLRLSCAASGFSLTNYGVHWVRQAPGKGLEWVAVIWRGGSTDYNAAFMSRFTISRDNSKNTLYLQMNSLRAEDTAVYYCARSPNSNFYWYFDVWGRGTLV
VL: EIVLTQSPATLSLSPGERATLSCSGSSSVSYMYWYQQKPGQAPRLLIYDTSNLASGIPARFSGSGSGTDFTLTISNLEPEDFAVYYCQQWSSYPPTFGQGTKLEIK
% inhibition [7]: < 50%
% inhibition [8]: < 50%

B6: humanised 15E10 antibody B1L2 (antibody, V domains shown)
VH: QVQLVESGGGVVQPGRSLRLSCAASGFSLTNYGVHWVRQAPGKGLEWVAVIWRGGSTDYNAAFMSRFTISRDNSKNTLYLQMNSLRAEDTAVYYCARSPNSNFYWYFDVWGRGTLVTVSS
VL: B3 VL with Y48E, F70Y
IC50 [9]: 0.334 µg/mL
IC50 [10]: 0.11 µg/mL

B8: Humanised antibody 10D3 DLE (antibody, V domains shown)
VH: EVQLVQSGAEVKKPGASVKVSCKASGYIFTDYNMDWVRQAPGQKLEWIGDINPNNGGTIDNQKFKDRATLTVDKSTSTVYMELSSLRSEDTAVYYCARGIYYYGSHYFDYWGQGTLVTVSS
VL: EIVLTQSPSSLSASVGDRVTITCSATSSVSVMHWFQKKPGKAPKRWIYDTSKLASGVPSRFSGSGSGTDYTLTISSLQPEDFATYYCQQWSSNPLTFGGGTKVDIKR
IL-6 release from KB cells (KB cell assay), IC50 [11]: 0.205 µg/mL
IL-6 release from KB cells (KB cell assay), IC50 [12]: 0.07 µg/mL
IC50 [13]: 0.021 µg/mL
IC50 [14]: 0.059 µg/mL

B10: 10D3 chimaeric antibody (antibody, V domains shown)
VH: EVQLQQSGPELVKPGASVKISCKASGYIFTDYNMDWVKQSHGKKLEWIGDINPNNGGTIDNQKFKDKATLTVDKSSSTAYMELRSLTSEDTAVYYCARGIYYYGSHYFDYWGQGTTLTVSS
VL: QIVLTQSPAIMSASPGEKVTMTCSATSSVSVMHWFQKKSGTSPKRWIYDTSKLASGVPTRFSGSGSGTSYSLTISSMEAEDTATYYCQQWSSNPLTFGSGTKLELK
IL-6 release from KB cells (KB cell assay), IC50 [1]: 0.107 µg/mL
IC50 [13]: 0.032 µg/mL
IC50 [14]: 0.246 µg/mL
IC50 [4]: 0.057 µg/mL

Results, then the binder that gave them:

IL-6 release from KB cells (KB cell assay), IC50 [2]: 0.123 µg/mL
IC50 [3]: 0.035 µg/mL
B4: humanised 15E10 antibody B3L2 (wild type Fc) (antibody, V domains shown)
VH: B6 VH with R71K, R97K
VL: EIVLTQSPATLSLSPGERATLSCSGSSSVSYMYWYQQKPGQAPRLLIEDTSNLASGIPARFSGSGSGTDYTLTISNLEPEDFAVYYCQQWSSYPPTFGQGTKLEIKR

IC50 [9]: 0.048 µg/mL
IC50 [10]: 0.04 µg/mL
B5: humanised 15E10 antibody B4L2 (antibody, V domains shown)
VH: B6 VH with F67L, R71K, R97K
VL: B4 VL

IC50 [10]: 0.167 µg/mL
% inhibition [7]: < 50%
B7: humanised 15E10 antibody B4L1 (antibody, V domains shown)
VH: B6 VH with F67L, R71K, R97K
VL: B3 VL

IL-6 release from KB cells (KB cell assay), IC50 [1]: 0.114 µg/mL
IC50 [4]: 0.107 µg/mL
B9: 10D3 murine antibody (antibody, V domains shown)
VH: B10 VH
VL: B10 VL
